The target of this assay is T1, G-CSFR/gp130 chimera proteins (Homo sapiens, UniProt P40189+Q99062).
T1 construct: the extracellular domain of the human G-CSF receptor fused to the full transmembrane domain; expressed in transfected cells; host or cells: F11 cells
T1 sequence (Q99062+P40189 with tags, fused parts or gaps): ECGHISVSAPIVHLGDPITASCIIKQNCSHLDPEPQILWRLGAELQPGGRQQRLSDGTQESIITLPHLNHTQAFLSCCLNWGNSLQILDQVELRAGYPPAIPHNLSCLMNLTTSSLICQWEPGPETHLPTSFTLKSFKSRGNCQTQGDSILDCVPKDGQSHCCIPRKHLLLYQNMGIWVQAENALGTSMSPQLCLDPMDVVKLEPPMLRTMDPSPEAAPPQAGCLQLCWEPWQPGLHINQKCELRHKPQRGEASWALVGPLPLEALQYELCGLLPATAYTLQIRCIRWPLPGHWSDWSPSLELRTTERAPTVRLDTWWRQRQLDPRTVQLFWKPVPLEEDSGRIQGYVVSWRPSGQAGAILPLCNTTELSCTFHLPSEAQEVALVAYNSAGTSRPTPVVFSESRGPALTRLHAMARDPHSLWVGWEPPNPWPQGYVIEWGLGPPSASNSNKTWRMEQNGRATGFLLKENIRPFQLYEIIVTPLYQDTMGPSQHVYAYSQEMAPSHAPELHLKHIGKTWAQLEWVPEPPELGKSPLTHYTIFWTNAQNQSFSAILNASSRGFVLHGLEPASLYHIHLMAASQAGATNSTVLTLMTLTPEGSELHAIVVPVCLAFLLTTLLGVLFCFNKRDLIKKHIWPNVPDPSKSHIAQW
The assay can be described thus: G-CSF stimulation of G-CSFR/gp130 chimera proteins in F11 cells, cell mortality by Trypan blue exclusion. Format: cell-based. Conditions: 100 nM; G-25 expressed. As for the experimental part: B) F11 cells were transfected with 0.5 μg of the pcDNA3 vector or pcDNA3-APP in association with 0.5 μg of the pEFBos vector or the pEFBos vectors encoding the extracellular domain of the human G-CSF receptor fused to the full transmembrane domain and a C-terminally truncated intracytoplasmic domain of gp130 (named “G-CSFR/gp130”). G-CSFR/gp130 (277) contains the full intracytoplasmic domain of gp130 corresponding to amino acids 1-277, while G-CSFR/gp130 (25), (68), and (133) contain the intracytoplasmic domains corresponding to amino acids 1-25, 1-68, and 1-133, respectively. At 24 hr after transfection, the cells were added with indicated amounts of human G-CSF. Cell mortality was determined by Trypan blue exclusion assay at 72 hr after transfection. The results of immunoblot analysis of the expression of […] are shown in photos.
C) Instead of the pcDNA3-V6421-APP vector, pcDNA3-K595 N/M596L-APP (NL-APP), M146L-PS1 and N141-I-PS2 vectors were used to do the same experiments as in FIG. 2A. The results of immunoblot analysis of the expression of NL-APP, M146L-PS1 and N141-I-PS2 are shown in photos.
D) F11 cells were transfected with 0.5 μg of the pEFBos vector or pEF-G85R-SOD1 in association with 0.5 μg of the pEFBos vector or each pEFBos vector encoding G-CSFR/gp130 (277) or G-CSFR/gp130 (25). At 24 hr after transfection, the cells were added with indicated amounts of human G-CSF. Cell mortality was determined by Trypan blue exclusion assay at 72 hr after transfection. The results of the expression of G85R-SOD1, which were confirmed by the immunoblot analysis, are shown in photos.
Neurohybrid F11 cells and pcDNA3 vectors encoding V642I-APP, K595N/M596L-APP (NL-APP), M146L-PS1, and N141I-PS2 cDNA were prepared as already described (Hashimoto et al, 2000, 2001a, 2003). pCAG-human gp130 and pCAG-human gp130 ED (the extracellular domain of human gp130) were prepared as described (Kumanogoh et al., 1997). pcDNA3 vectors encoding the extracellular domain of the G-CSF receptor fused to the full-length transmembrane domain and various portions of the intracellular domains of human gp130, were prepared as described (Fukada et al, 1996). The intracellular domain of gp130 was C-terminally truncated. A chimera protein named G-277 contained a 277 amino acid-long full intracellular domain of gp130 (SEQ ID NO:35), while G-195, G-133, G-68, and G-25 contained the amino acids 1-195 (SEQ ID NO:36), 1-133 (SEQ ID NO:37), 1-68 (SEQ ID NO:38), and 1-25 (SEQ ID NO:39) intracellular portions, respectively. C-terminally myc-tagged human WSX-1 and myc-tagged mouse CREME9 cDNAs were amplified from human and mouse embryo cDNA (BioChain) by PCR using sets of sense primers and antisense primers: 5′-[…]-3′ (SEQ ID NO:3) and 5′-[…]-3′ (SEQ ID NO:4) for human WSX-1; 5′-[…]-3′ (SEQ ID NO:5); and 5′-[…]-3′ (SEQ ID NO:6) for mouse CREME9. Plasmids encoding C-terminally V5-tagged human CNTF-R (V %-CNTF-R) and rat IL-6R (pUCM18-rat IL-6R) were purchased from Invitrogen and American Culture Collection, respectively. A pEFBos vector comprising familial ALS (FALS) gene G85R-SOD1 was kindly provided by Dr. Shoji Tsuji. Cosmid of human wild […] was constructed by inserting a full-length gp130 into a SwaI site of pAxCAwt (TaKaRa).
The transfection procedures were as described (Hashimoto et al, 2000, 2001a, 2003). F11 cells, seeded at 7×10^4/well in 6-well dishes, were transfected with indicated vectors. Transfection efficiency in these protocols has been determined to be invariably around 70%. At 72 hrs after transfection, the Trypan blue exclusion assay and LDH assay were performed as a cell-death assay and the WST-8 assay was performed as cell-viability assays (Hashimoto et al, 2000, 2001a b, 2003). HN was added to the culture medium usually at 5 hrs after transfection, but in some cases at 24 hrs after transfection.

B1: G-CSF: human G-CSF, ligand stimulating G-CSFR/gp130 chimera proteins (protein, UniProt P09919 31-207, looked up)
Granulocyte …: TPLGPASSLPQSFLLKCLEQVRKIQGDGAALQEKLVSECATYKLCHPEELVLLGHSLGIPWAPLSSCPSQALQLAGCLSQLHSGLFLYQGLLQALEGISPELGPTLDTLQLDVADFATTIWQQMEELGMAPALQPTQGAMPAFASAFQRRAGGVLVASHLQSFLEVSYRVLRHLAQP
Regarding B1, the “prevention of NL-APP-, M146L-PS1-, N141I-PS2-mediated neuronal cell death” value is reported as “not”.

Values taken from US8173771B2, “Humanin receptor or humanin-like polypeptide receptor” (Keio Univeristy, priority 2005, dated 2012).
